Test results: publication PMC13061415 (2026)

B1: muskelin CTLH-CRA domain (205–735 Δ248–625) [rat] / Twa1 CTLH-CRA domain (58-190), wild type [mouse] (parent complex)
chain 1: EHPMLTDMHDKLVLKGDFDACEELIEKAVNDGLFNQYISQQEYPSKDYLLRHCKYLIRKHRFEEKAQMDPLSALKYLQNDLYITVDHSDPEETKEFQLLASALFKSGSDFTALGFSDVDHTYAQRTQLFDTLVNFFPDSMTPPKGNLVDLITL
chain 2: SVDLETLDERIKIREMILKGQIQEAIALINSLHPELLDTNRYLYFHLQQQHLIELIRQRETEAALEFAQTQLAEQGEESRECLTEMERTLALLAFDSPEESPFGDLLHMMQRQKVWSEVNQAVLDYENRESTP

Variants of: B1
Assay: ITC; 160 µM muskelin + 16 µM Twa1 mutants; read off a plot

| Variant | dG [kcal/mol] |
| --- | --- |
| chain 2 A68G, chain 2 Q69R, chain 2 A73Q, chain 2 L83K, chain 2 E87K, chain 2 L90F, chain 2 F95Y, chain 2 F103V | ~-8.8 |
